# Data taken from patent publication US12618845B2, “Methods and compositions for protein sequencing” (Quantum-Si Incorporated, priority 2018, dated 2026).
# Read-outs that look alike come from different tables or passages of the source.
# Test system: peptide substrates
# Format: biochemical
molecule,measurement,setting,value
"VPr pAzF (protein, non-natural residues) MPPITQQATVTAWLPQVDASQITGTISSLESFTNRFYTTTSGAQASDWIASEWQALSASLPNASVKQVSHSGYNQKSVVMTITGSEAPDEWIVIGGHLDSTIGSHTNEQSVAPGADDDASGIAAVTEVIRVLSENNFQPKRSIAFMAYAAEEVGLRGSQDLANQYKSEGKNVVSALQLDMTNYKGSAQDVVFITDYTDSNFTQYLTQLMDEYLPSLTYGFDTCGYACSDHASWHNAGYPAAMPFESKFNDYNPRIHTTQDTLANSDPTGSHAKKFTQLGLAYAIEMGSATGDTPTPGNQ",HPLC Assay Conv,"substrate […]{LYSN3}NH2 (SEQ ID NO: 107), 200 μM Peptide, 4 μM enzyme, 10 mM MgCl2, 50 mM MOPS pH 8.0, 37° C./1 hr",96%
V. anguillarum APN (protein) MEEKVWISIGGDATQTALRSGAQSLLPENLINQTSVWVGQVPVSELATLSHEMHENHQRCGGYMVHPSAQSAMSVSAMPLNLNAFSAPEITQQTTVNAWLPSVSAQQITSTITTLTQFKNRFYTTSTGAQASNWIADHWRSLSASLPASKVEQITHSGYNQKSVMLTITGSEKPDEWVVIGGHLDSTLGSRTNESSIAPGADDDASGIAGVTEIIRLLSEQNFRPKRSIAFMAYAAEEVGLRGSQDLANRFKAEGKKVMSVMQLDMTNYQGSREDIVFITDYTDSNFTQYLTQLLDEYLPSLTYGFDTCGYACSDHASWHAVGYPAAMPFESKFNDYNPNIHSPQDTLQNSDPTGFHAVKFTKLGLAYVVEMGNASTPPTPSNQLKNGVPVNGLSASRNSKTWYQFELQEAGNLSIVLSGGSGDADLYVKYQTDADLQQYDCRPYRSGNNETCQFSNAQPGRYSILLHGYNNYSNASLVANAQ,HPLC Assay Conv,"substrate AAPAAP{LYSN3}NH2 (SEQ ID NO: 98), 1 mM peptide, 2 μM enzyme, 2.5 mM ZnCl2, 25 mM Tris pH 8.0, 30° C./1 hr",50%
same,HPLC Assay Conv,"substrate KKPKKP{LYSN3}NH2 (SEQ ID NO: 100), 1 mM peptide, 2 μM enzyme, 2.5 mM ZnCl2, 25 mM Tris pH 8.0, 30° C./1 hr",<5%
same,HPLC Assay Conv,"substrate RRPRRP{LYSN3}NH2 (SEQ ID NO: 96), 1 mM peptide, 2 μM enzyme, 2.5 mM ZnCl2, 25 mM Tris pH 8.0, 30° C./1 hr",>90%
"NPEPPS: puromycin-sensitive aminopeptidase, SEQ ID NO: 56 (protein, Puromycin-sensitive aminopeptidase) MWLAAAAPSLARRLLFLGPPPPPLLLLVFSRSSRRRLHSLGLAAMPEKRPFERLPADVSPINYSLCLKPDLLDFTFEGKLEAAAQVRQATNQIVMNCADIDIITASYAPEGDEEIHATGFNYQNEDEKVTLSFPSTLQTGTGTLKIDFVGELNDKMKGFYRSKYTTPSGEVRYAAVTQFEATDARRAFPCWDEPAIKATFDISLVVPKDRVALSNMNVIDRKPYPDDENLVEVKFARTPVMSTYLVAFVVGEYDFVETRSKDGVCVRVYTPVGKAEQGKFALEVAAKTLPFYKDYFNVPYPLPKIDLIAIADFAAGAMENWGLVTYRETALLIDPKNSCSSSRQWVALVVGHELAHQWFGNLVTMEWWTHLWLNEGFASWIEYLCVDHCFPEYDIWTQFVSADYTRAQELDALDNSHPIEVSVGHPSEVDEIFDAISYSKGASVIRMLHDYIGDKDFKKGMNMYLTKFQQKNAATEDLWESLENASGKPIAAVMNTWTKQMGFPLIYVEAEQVEDDRLLRLSQKKFCAGGSYVGEDCPQWMVPITISTSEDPNQAKLKILMDKPEMNVVLKNVKPDQWVKLNLGTVGFYRTQYSSAMLESLLPGIRDLSLPPVDRLGLQNDLFSLARAGIISTVEVLKVMEAFVNEPNYTVWSDLSCNLGILSTLLSHTDFYEEIQEFVKDVFSPIGERLGWDPKPGEGHLDALLRGLVLGKLGKAGHKATLEEARRRFKDHVEGKQILSADLRSPVYLTVLKHGDGTTLDIMLKLHKQADMQEEKNRIERVLGATLLPDLIQKVLTFALSEEVRPQDTVSVIGGVAGGSKHGRKAAWKFIKDNWEELYNRYQGGFLISRLIKLSVEGFAVDKMAGEVKAFFESHPAPSAERTIQQCCENILLNAAWLKRDAESIHQYLLQRKASPPTV",HPLC Assay Conv,"substrate LeuTyr 5 mM, 700 nM enzyme, 25 mM HEPES, 1 mM Mg(OAc)2, 1 mM DTT, pH 7.5, 37° C./1 hr",5%
